According to patent US10835594B2, “Type III secretion injectisome proteins for treatment and prevention of chlamydial infections” (priority 2014, dated 2020):

System: murine C. trachomatis (Cmu)
Test: Immunization of mice and live intravaginal challenge with Cmu
Parameters: species or system BALB/c mice
Conditions: mouse, in vivo

B1: Cpn0803 protein: Chlamydia pneumoniae type III secretion-associated protein, SEQ ID NO: 1 (protein, listed as Chlamydia pneumoniae)
chain: MAAKTKTLELEDNVFLLLEGNLKRIFATPIGYTTFREFQNVVFNCANGQQEIANFFFEMLINGKLTQELAPQQKQAAHSLIAEFMMPIRVAKDIHERGEFINFITSDMLTQQERCIFLNRLARVDGQEFLLMTDVQNTCHLIRHLLARLLEAQKNPVGEKNLQEIQEEITSLKNHFDELTKALQ
With B1 the “immune response protective against live challenge” value was “protective against a live challenge with Chlamydia” and the “immune response protective against live challenge” value (listed as Cpn0803) was “Protective Against a Live Challenge with Chlamydia”.
